Laboratory results as given in article PMC11730255 (Molecular Therapy Oncology, 2024).

Biological target: T1, rhB7-H6 biotinylated Fc fusion protein (human, UniProt Q68D85 25-262, biotin)
T1 construct: B7-H6 (natural cytotoxicity triggering receptor 3 ligand 1), human; supplier named under library sorting; the BLI methods say only 'B7-H6'; source: bought: R&D Systems
T1 sequence (looked up): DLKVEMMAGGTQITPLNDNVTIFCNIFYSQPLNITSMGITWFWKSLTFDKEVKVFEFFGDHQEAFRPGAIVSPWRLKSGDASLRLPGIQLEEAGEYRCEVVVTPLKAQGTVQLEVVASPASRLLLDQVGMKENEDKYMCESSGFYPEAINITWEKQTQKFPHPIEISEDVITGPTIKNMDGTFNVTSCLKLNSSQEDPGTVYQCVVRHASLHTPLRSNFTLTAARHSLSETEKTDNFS
Assay: BLI; competition/epitope binning: antibodies coupled on activated ARG2G biosensors, first association with NKp30 3 min, second association 3 min with B7-H6 or the other NKp30 binders; both orientations, 25 C
Details: both partners purified

B1: Recombinant human His-tagged ECD of NKp30 (receptor, UniProt O14931 19-135, looked up)
chain: LWVSQPPEIRTLEGSSAFLPCSFNASQGRLAIGSVTWFRDEVVPGKEVRNGTPEFRGRLAPLASSRFLHDHQAELHIRDVRGHDASIYVCRVEVLGLGVGTGNGTRLVVEKEHPQLG
notes: NKp30 (natural cytotoxicity triggering receptor 3), human, extracellular domain; supplier named under library sorting; also called rhNKp30; NKp30 His-tagged protein; source: bought: ACROBiosystems
  binding result: binds
